Test results from patent publication US20240026331.
Residue numbers refer to the chain shown, from its start. Names and notes keep the numbering of the source.

B1: unactivated neprosin polypeptide prepared from cells expressing mSP-His-Npr1 (SEQ ID NO: 40) (protein)
chain: HHHHHHRSIQARLANKPKGTIKTIKGDDGEVVDCVDIYKQPAFDHPLLKNHTLQMQPSSYASKVGEYNKLEQPWHKNGECPKGSIPIRRQVITGLPVVKKQFPNLKFAPPSANTNHQYAVIAYFYGNASLQGANATINIWEPNLKNPNGDFSLTQIWISAGSGSSLNTIEAGWQVYPGRTGDSQPRFFIYWTADGYTSTGCYDLTCPGFVQTNNYYAIGMALQPSVYGGQQYELNESIQRDPATGNWWLYLWGTVVGYWPASIYNSITNGADTVEWGGEIYDSSGTGGFHTTTQMGSGHFPTEGYGKASYVRDLQCVDTYGNVISPTANSFQGIAPAPNCYNYQFQQGSSELYLFYGGPGCQ
B2: activated (mature, proteolytically active) neprosin Npr1 prepared by acid treatment (100 mM glycine, pH 2.5) of Npr1 purified from cells expressing … (protein)
chain: SANTNHQYAVIAYFYGNASLQGANATINIWEPNLKNPNGDFSLTQIWISAGSGSSLNTIEAGWQVYPGRTGDSQPRFFIYWTADGYTSTGCYDLTCPGFVQTNNYYAIGMALQPSVYGGQQYELNESIQRDPATGNWWLYLWGTVVGYWPASIYNSITNGADTVEWGGEIYDSSGTGGFHTTTQMGSGHFPTEGYGKASYVRDLQCVDTYGNVISPTANSFQGIAPAPNCYNYQFQQGSSELYLFYGGPGCQ
B3: activated WT Npr1 prepared from Npr1 expressed in Pichia cells (pJAG-s1-His-Npr1) (protein)
chain: B2 chain
B4: activated N216A/N324A Npr1 prepared from pJAG-s1-His-N216A, N324A Npr1 expressed in Pichia cells (SEQ ID NO: 66) (protein)
chain: B2 chain with N17A, N125A
B5: activated N216A Npr1 prepared from pJAG-s1-His-N216A Npr1 expressed in Pichia cells (SEQ ID NO: 60) (protein)
chain: B2 chain with N17A

Biological target: gliadin substrate

Row | Protein | proteolytic activity on gliadin substrate (percent of gliadin remaining, RIDASCREEN Gliadin competitive ELISA; pH 4, 37 C, 5 or 30 min) | gliadin digestion in buffered SGF (pH 3, 0.8 mg/mL pepsin), RIDASCREEN Gliadin competitive ELISA, 0-60 min | proteolytic activity on gliadin substrate inside a mouse stomach (enzyme-to-substrate ratio 1:1000 or 1:10,000, 15 min; RIDASCREEN Gliadin competitive ELISA) | gliadin digestion in buffered SGF (pH 3, 0.8 mg/mL pepsin), RIDASCREEN Gliadin competitive ELISA
1 | B1 | Neprosin preparation activated by treatment at acidic pH displays significantly greater proteolytic activity compared to unactivated neprosin polypeptide prepared from cells expressing mSP-His-Npr1 |  |  | 
2 | B2 | Neprosin preparation activated by treatment at acidic pH displays significantly greater proteolytic activity compared to unactivated neprosin polypeptide prepared from cells expressing mSP-His-Npr1 | shows equivalent gliadin digestion activity when compared to the enzyme prepared from mammalian CHO cells | dose-dependent proteolytic activity of activated WT Npr1 prepared from Npr1 expressed in CHO cells on gliadin substrate inside a mouse stomach | 
3 | B3 |  | The activated neprosin protease from Pichia is proteolytically active on gliadin substrate in SGF and shows equivalent gliadin digestion activity when compared to the enzyme prepared from mammalian CHO cells |  | 
4 | B4 |  |  |  | Both N216A Npr1 and N216A/N324A Npr1 digested gliadin in a similar manner as WT Npr1 produced in Pichia
5 | B5 |  |  |  | Both N216A Npr1 and N216A/N324A Npr1 digested gliadin in a similar manner as WT Npr1 produced in Pichia
